Positions count from the first letter of the chain named.

T1: MutS R842E (Pseudomonas aeruginosa, UniProt Q9HY08 1-855, R842E)
T1 sequence: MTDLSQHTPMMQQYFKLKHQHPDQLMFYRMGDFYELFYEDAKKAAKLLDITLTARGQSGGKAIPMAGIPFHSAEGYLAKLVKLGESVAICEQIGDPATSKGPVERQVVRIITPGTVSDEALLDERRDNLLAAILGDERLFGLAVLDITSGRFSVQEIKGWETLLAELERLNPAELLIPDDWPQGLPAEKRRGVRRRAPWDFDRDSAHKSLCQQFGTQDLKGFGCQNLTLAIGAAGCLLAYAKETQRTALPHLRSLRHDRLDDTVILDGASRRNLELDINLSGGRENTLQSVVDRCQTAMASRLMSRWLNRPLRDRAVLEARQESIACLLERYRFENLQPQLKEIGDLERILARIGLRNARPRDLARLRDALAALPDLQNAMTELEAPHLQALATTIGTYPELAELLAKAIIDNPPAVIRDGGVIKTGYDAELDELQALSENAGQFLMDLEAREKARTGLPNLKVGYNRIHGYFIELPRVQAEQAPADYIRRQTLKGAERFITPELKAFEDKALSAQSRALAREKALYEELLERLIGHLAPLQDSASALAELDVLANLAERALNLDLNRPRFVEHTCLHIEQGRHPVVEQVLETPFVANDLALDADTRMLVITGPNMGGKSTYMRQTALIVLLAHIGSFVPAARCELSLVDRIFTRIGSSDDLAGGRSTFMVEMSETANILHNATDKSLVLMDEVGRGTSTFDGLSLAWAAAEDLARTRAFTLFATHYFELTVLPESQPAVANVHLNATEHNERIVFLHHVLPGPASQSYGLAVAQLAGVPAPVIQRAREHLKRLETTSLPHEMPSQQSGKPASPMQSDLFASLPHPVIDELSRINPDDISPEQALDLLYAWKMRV

T2: MutS (Pseudomonas aeruginosa, UniProt Q9HY08 1-855)
T2 sequence: T1 sequence with E842R

B1: GT-pDNA 13 nt (dsDNA)
DNA 1: ATGTGAATCAGTATGGTTGCTATCTGCTGAAG
DNA 2: ATTTCCTTCAGCAGATAGTAACCATACTGATTCACAT
B2: TC-pDNA (dsDNA)
DNA 1: ATGTGAATCAGTATGGTTTCTATCTGC
DNA 2: B1 DNA 2 with T19C
B3: CC-pDNA (dsDNA)
DNA 1: ATGTGAATCAGTATGGTTCCTATCTGC
DNA 2: B1 DNA 2 with T19C
B4: GA-pDNA (dsDNA)
DNA 1: ATGTGAATCAGTATGGTTGCTATCTGC
DNA 2: B1 DNA 2 with T19A
B5: GG-pDNA (dsDNA)
DNA 1: ATGTGAATCAGTATGGTTGCTATCTGC
DNA 2: B1 DNA 2 with T19G
B6: CT-pDNA (dsDNA)
DNA 1: ATGTGAATCAGTATGGTTCCTATCTGC
DNA 2: B1 DNA 2
B7: AC-pDNA (dsDNA)
DNA 1: ATGTGAATCAGTATGGTTACTATCTGC
DNA 2: B1 DNA 2 with T19C
B8: TT-pDNA (dsDNA)
DNA 1: ATGTGAATCAGTATGGTTTCTATCTGC
DNA 2: B1 DNA 2
B9: CA-pDNA (dsDNA)
DNA 1: ATGTGAATCAGTATGGTTCCTATCTGC
DNA 2: B1 DNA 2 with T19A
B10: TG-pDNA (dsDNA)
DNA 1: ATGTGAATCAGTATGGTTTCTATCTGC
DNA 2: B1 DNA 2 with T19G
B11: MutS from Pseudomonas aeruginosa (natural protein, UniProt Q9HY08 1-855, looked up)
chain: T1 sequence with E842R
B12: MutSN279A (natural protein, Pseudomonas aeruginosa, UniProt Q9HY08 1-855, looked up)
chain: T1 sequence with N279A, E842R
B13: MutSR272A (natural protein, Pseudomonas aeruginosa, UniProt Q9HY08 1-855, looked up)
chain: T1 sequence with R272A, E842R
B14: MutSR272E (natural protein, Pseudomonas aeruginosa, UniProt Q9HY08 1-855, looked up)
chain: T1 sequence with R272E, E842R
B15: MutSR842E (natural protein, Pseudomonas aeruginosa, UniProt Q9HY08 1-855, looked up)
chain: T1 sequence
B16: MutSF33A (natural protein, Pseudomonas aeruginosa, UniProt Q9HY08 1-855, looked up)
chain: T1 sequence with F33A, E842R

The first data set addresses T1, MutS R842E. The data set can be described thus: native PAGE shift.
Consider B1, for which the binding result was “binds”.

Another data set concerns the target T2, MutS. The data set can be described thus: native PAGE shift.
Take B1: the binding result is reported as “binds”. The same measure, in the same setting: in the case of B2 it was “binds”. For B3, the binding result is “binds”.

Regarding B4, the binding result is listed as “binds”. The same measure, in the same setting: in the case of B5 it was “binds”.

Another data set has as its target T2, MutS. The data set can be described thus: native PAGE shift. This is another data set of the same source.
In the case of B6, the binding result was “binds”.

The target of the next data set is T2, MutS. Description: native PAGE shift. The source holds these as a separate data set.
On to B7, for which the binding result was “binds”.

For a further data set, the target named is T2, MutS. Description: native PAGE shift. This is another data set of the same source.
Turning to B8, the binding result is “binds”.

Turning to B9, the binding result is recorded as “binds”. Same read-out and setting: the result for B10 reads “binds”.

Another data set addresses T1, MutS R842E. Description: native PAGE shift. This is another data set of the same source.
Take B7: the binding result is listed as “binds”. For B8, the binding result is reported as “binds”. With B2, the binding result is reported as “binds”. The same measure, in the same setting: in the case of B3 it was “binds”; in that of B4, “binds”. The same measure, in the same setting: the result for B6 reads “binds”; that for B5, “binds”; that for B10, “binds”.

The next data set concerns the molecule itself. The data set can be described thus: native gel or EMSA. On the technique in general: Mobility shift assays separate free from complexed probe on a gel.
As a reminder, the stoichiometry N is a count of units in the complex or per binding partner. B11: the “stoichiometry N” value was 4. In the case of B12, the “stoichiometry N” value was 4. For B13, the “stoichiometry N” value amounted to 4.

For the molecule B14, the “stoichiometry N” value is 4. On to B15, for which the “stoichiometry N” value was determined as 2.

B16: the “stoichiometry N” value amounted to 4.

The record behind these values is paper doi:10.1101/2020.05.01.070730 (bioRxiv, 2020).
